Assay [1] deals with MC receptor endogenous to Xenopus laevis melanophores (Xenopus laevis). The assay can be described thus: cell-based or functional assay.
Assay [2] shares this target. The assay can be described thus: Schild plot; antagonism of α-MSH pigment dispersion in Xenopus melanophores (functional).
Assay [3] has the same target. The assay can be described thus: Schild regression; suppression of α-MSH-induced pigment dispersion in Xenopus melanophores (functional).
For assay [4] the target is unchanged. The assay can be described thus: Schild plot regression analysis, frog melanophores (functional).

Square brackets hold non-standard residues; d marks the D form. Ends that are not written are not given here. * marks the point of attachment. Benzoyl(3-OMe) = COc1cccc(C(=O)*)c1; Benzoyl(4-OMe) = COc1ccc(C(=O)*)cc1

For the molecule {Benzoyl(4-OMe)}-RRIRPK[dL]-NH2 [p-anisoyl-[D-Leu^12] dynorphin A(6-12)-NH2], the MCR IC50 nM: antagonism of α-MSH (600 pM) darkening of frog melanophores in assay [1] turned out to be 29 nM. Moreover, in assay [2], the Ki came to 27 nM and the negative logarithm of the Ki (pKi) is 7.57.

B1: human agouti-related protein fragment ARP-(83-132)-NH2 (peptide)
peptide: SSRRCVRLHESCLGQQVPCCDPCATCYCRFFNAFCYCRKLGTAMNPCSRT-NH2
modifications: disulfide (positions not given here); not fully specified (bridges); also: five disulfides among the 10 Cys, arrangement undetermined
On to B1, for which the EC50 of α-MSH in frog melanophores in the presence of 30 nM ARP fragment in assay [1] was 19 nM. Also, the Ki was 0.7 nM in assay [3] and 0.21 nM in assay [4].

B2: SQW-13 (peptide)
peptide: {Benzoyl(3-OMe)}-RRIRPKA-NH2
SMILES: CC[C@H](C)[C@H](NC(=O)[C@H](CCCNC(=N)N)NC(=O)[C@H](CCCNC(=N)N)NC(=O)c1cccc(OC)c1)C(=O)N[C@@H](CCCNC(=N)N)C(=O)N1CCC[C@H]1C(=O)N[C@@H](CCCCN)C(=O)N[C@@H](C)C(N)=O
As to B2, in assay [1], the MCR IC50 nM: antagonism of α-MSH (600 pM) darkening of frog melanophores was 62 nM.

B3: SQW-12 (peptide)
peptide: {Benzoyl(3-OMe)}-RRIRPAL-NH2
SMILES: CC[C@H](C)[C@H](NC(=O)[C@H](CCCNC(=N)N)NC(=O)[C@H](CCCNC(=N)N)NC(=O)c1cccc(OC)c1)C(=O)N[C@@H](CCCNC(=N)N)C(=O)N1CCC[C@H]1C(=O)N[C@@H](C)C(=O)N[C@@H](CC(C)C)C(N)=O
Take B3: the MCR IC50 nM: antagonism of α-MSH (600 pM) darkening of frog melanophores in assay [1] was found to be 1600 nM.

For the origin of these results see patent publication US20020004485A1.
